The target of assay [1] is T1, human KLB on CHOK1-hKLB cells (human, UniProt Q86Z14 1-1044).
T1 construct: whole, on cells; also called human KLB antigen; β-Klotho
T1 sequence (looked up): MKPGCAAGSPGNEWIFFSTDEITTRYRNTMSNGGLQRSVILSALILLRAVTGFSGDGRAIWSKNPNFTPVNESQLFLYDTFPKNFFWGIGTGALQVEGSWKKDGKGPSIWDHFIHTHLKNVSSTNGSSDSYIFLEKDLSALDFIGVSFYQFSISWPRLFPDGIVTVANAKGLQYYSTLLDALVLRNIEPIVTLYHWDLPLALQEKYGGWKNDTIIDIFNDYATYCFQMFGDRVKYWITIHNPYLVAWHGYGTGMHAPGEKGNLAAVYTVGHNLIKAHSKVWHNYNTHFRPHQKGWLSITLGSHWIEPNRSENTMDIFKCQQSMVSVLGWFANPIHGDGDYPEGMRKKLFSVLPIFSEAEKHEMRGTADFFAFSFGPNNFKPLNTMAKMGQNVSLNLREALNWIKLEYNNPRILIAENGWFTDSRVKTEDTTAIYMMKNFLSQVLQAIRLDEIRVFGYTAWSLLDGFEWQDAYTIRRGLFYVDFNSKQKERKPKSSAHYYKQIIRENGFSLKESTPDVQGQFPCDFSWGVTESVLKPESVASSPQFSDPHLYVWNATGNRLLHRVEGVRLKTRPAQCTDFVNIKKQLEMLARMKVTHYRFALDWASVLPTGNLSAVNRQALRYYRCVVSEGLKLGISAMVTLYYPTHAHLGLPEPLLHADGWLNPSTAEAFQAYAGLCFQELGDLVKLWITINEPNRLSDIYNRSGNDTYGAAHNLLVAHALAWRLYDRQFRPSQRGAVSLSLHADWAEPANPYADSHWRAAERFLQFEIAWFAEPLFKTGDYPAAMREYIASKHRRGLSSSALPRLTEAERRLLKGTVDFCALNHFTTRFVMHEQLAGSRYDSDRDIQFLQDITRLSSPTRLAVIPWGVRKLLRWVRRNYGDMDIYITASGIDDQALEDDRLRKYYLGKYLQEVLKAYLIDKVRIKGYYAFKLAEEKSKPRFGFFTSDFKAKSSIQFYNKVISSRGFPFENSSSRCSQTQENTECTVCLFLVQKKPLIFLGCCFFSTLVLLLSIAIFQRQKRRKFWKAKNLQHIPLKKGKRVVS
Nature of the assay: flow cytometry on CHOK1-hKLB cells. An excerpt:
The above heavy chain variable regions were fused to the heavy chain constant region (set forth in SEQ ID NO: 22) and the light chain variable regions were fused to the light chain constant region (set forth in SEQ ID NO: 23) to construct anti-KLB antibodies, and the binding activity of the obtained antibodies for CHOK1-hKLB was detected (see Test Example 2 of the present disclosure for the experimental method).
The binding ability of the antibodies for CHOK1 cell strains CHOK1-hKLB and CHOK1-cynoKLB overexpressing human KLB and monkey KLB (see Example 1 for specific preparation procedure), respectively, was detected by flow cytometry. The specific procedure was as follows: the above cells were cultured in 10% FBS-containing IMDM medium and incubated in an incubator at 37° C. and 5% CO₂ for 2 days. The cells were then added to a cell plate at 1×10⁵ cells per well, centrifuged at 300 g for 5 min, and then washed once with 1% BSA. The antibody diluted in gradient was added to the cell plate at 100 μL per well, and the mixture was incubated at 4° C. for 1 h and washed once with 1% BSA. The diluted (1:400) APC-goat anti-human IgG Fc fluorescent secondary antibody was added at 100 μL per well, and the resulting mixture was incubated at 4° C. for 1 h. The plate was washed three times with 1% BSA, PBS was added at 100 μL per well, and the plate was read.
(A flow cytometer gives signals particle by particle.)

Assay [2] addresses T2, human FGFR1c on cells (human, UniProt P11362 22-822).
T2 construct: whole, on cells; also called hFGFR1c; CHOK1-hFGFR1c
Nature of the assay: hybridoma clone screening on recombinant cells.

A word on the EC50: it is the concentration needed to bring the measured effect to its halfway point.

Residue numbers refer to the chain shown, from its start. Names may count otherwise.

T2 sequence (P11362 22-822): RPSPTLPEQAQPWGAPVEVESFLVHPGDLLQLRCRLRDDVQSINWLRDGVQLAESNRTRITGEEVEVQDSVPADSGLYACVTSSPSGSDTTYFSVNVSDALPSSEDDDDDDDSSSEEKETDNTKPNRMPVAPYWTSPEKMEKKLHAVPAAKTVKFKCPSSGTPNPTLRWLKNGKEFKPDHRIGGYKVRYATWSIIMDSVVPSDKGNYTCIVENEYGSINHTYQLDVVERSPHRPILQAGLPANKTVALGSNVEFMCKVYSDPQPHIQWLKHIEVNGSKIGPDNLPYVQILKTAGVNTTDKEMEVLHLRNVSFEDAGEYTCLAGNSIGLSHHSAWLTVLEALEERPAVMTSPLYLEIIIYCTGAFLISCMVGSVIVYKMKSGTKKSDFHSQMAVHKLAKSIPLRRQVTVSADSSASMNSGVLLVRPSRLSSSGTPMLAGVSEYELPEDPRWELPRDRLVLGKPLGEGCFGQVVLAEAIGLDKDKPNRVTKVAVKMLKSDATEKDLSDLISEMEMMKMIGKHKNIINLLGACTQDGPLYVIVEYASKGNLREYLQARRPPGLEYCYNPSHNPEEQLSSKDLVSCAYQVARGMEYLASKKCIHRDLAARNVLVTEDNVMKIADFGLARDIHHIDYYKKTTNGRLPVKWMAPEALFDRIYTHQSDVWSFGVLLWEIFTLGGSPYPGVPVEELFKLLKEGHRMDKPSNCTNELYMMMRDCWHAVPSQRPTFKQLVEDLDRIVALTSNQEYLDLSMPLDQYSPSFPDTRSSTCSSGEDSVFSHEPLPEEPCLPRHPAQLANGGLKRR

B1: mAb99-hIgG1 (antibody, V domains shown)
VH: EVQLQQSGAELVRPGSSVKMSCKTSGYTFTNYGINWVKQRPRQGLEWIGYIYIGNGDIEYNAKFKGKATLTSDTSSSTAYMQLSSLTSEDSAIYFCARGRGLGHFDVWGTGTTVTVSS
VL: DVQITQSPSYLAASPGETITINCRASKSISKFLAWFQEKPGKTNKLLIYSGSTLQSGIPSRFSGSGSGTDFTLTISGLEPEDFAMYYCQQHNEYPWTFGGGTKLEIKR
notes: chimeric: murine mAb-99 variable regions on human IgG1 (L234A, L235A) / kappa constant regions; also called chimeric antibody of mAb99
The molecule B1 gave an EC50 in assay [1] of 0.97 nM.

B2: mAb-99 (antibody, V domains shown)
VH: B1 VH
VL: DVQITQSPSYLAASPGETITINCRASKSISKFLAWFQEKPGKTNKLLIYSGSTLQSGIPSRFSGSGSGTDFTLTISGLEPEDFAMYYCQQHNEYPWTFGGGTKLEIK
notes: murine hybridoma antibody; also called murine antibody mAb-99
On to B2, for which the binding result in assay [2] was “no binding”.

B3: mAb18-hIgG1 (antibody, V domains shown)
VH: QVQLQQSGPELVRPGVSVKISCKGSGYTFTDYAMHWVKQTHAKSLEWIGVISTYSGTTNYNQNFKGKATVTVDKSSSTAYMELARLTSEDSAIYYCARSGPLDYWGQGTSLTVSS
VL: ENVLTQSPAIMSASPGEKVTMTCRASSSVSSSYLHWYQQKSGASPKLWIYSTSNLASGVPERFSGSGSGTSYSLTISSVEAEDAATYYCQQYSGYPLTFGSGTKLEIKR
notes: chimeric: murine mAb-18 variable regions on human IgG1 (L234A, L235A) / kappa constant regions; also called chimeric antibody of mAb18
B3 gave an EC50 in assay [1] of 2.16 nM.

B4: mAb-18 (antibody, V domains shown)
VH: B3 VH
VL: ENVLTQSPAIMSASPGEKVTMTCRASSSVSSSYLHWYQQKSGASPKLWIYSTSNLASGVPERFSGSGSGTSYSLTISSVEAEDAATYYCQQYSGYPLTFGSGTKLEIK
notes: murine hybridoma antibody; also called murine antibody mAb-18
Turning to B4, the binding result in assay [2] is listed as “no binding”.

B5: hAb18-7 (antibody, human IgG1, kappa, L234A L235A, V domains shown)
VH: EVQLVQSGAEVKKPGASVKVSCKASGYTFTDYAMHWVRQAPGQRLEWMGVISTYSGTTNYNQNFKGRVTITVDKSASTAYMELSSLRSEDTAVYYCARSGPLDYWGQGTTVTVSS
VL: ENVLTQSPDFQSVTPKEKVTITCRASSSVSSSYLHWYQQKPDQSPKLWIYSTSQLASGVPSRFSGSGSGTDYTLTINSLEAEDAATYYCQQYSGYPLTFGQGTKLEIKR
notes: humanized mAb-18: hAb18VH1 + hAb18VL2-1; human IgG1 (L234A, L235A) / kappa constant regions
As for B5, the half-maximal effective concentration (EC50) in assay [1] was found to be 2.4 nM.

B6: hAb18-13 (antibody, human IgG1, kappa, L234A L235A, V domains shown)
VH: B5 VH
VL: B5 VL with S28N
notes: humanized mAb-18: hAb18VH1 + hAb18VL2-7; human IgG1 (L234A, L235A) / kappa constant regions
With B6, the half-maximal effective concentration (EC50) in assay [1] came out at 5.4 nM. This EC50 lies about 2.3-fold higher than the previous one.

B7: hAb18-15 (antibody, human IgG1, kappa, L234A L235A, V domains shown)
VH: B5 VH
VL: B5 VL with A25V, Q54N
notes: humanized mAb-18: hAb18VH1 + hAb18VL2-9; human IgG1 (L234A, L235A) / kappa constant regions
B7: the EC50 in assay [1] came out at 1.9 nM.

B8: hAb18-14 (antibody, human IgG1, kappa, L234A L235A, V domains shown)
VH: B5 VH
VL: B5 VL with S26T, Q54N
notes: humanized mAb-18: hAb18VH1 + hAb18VL2-8; human IgG1 (L234A, L235A) / kappa constant regions
Molecule B8 returned an EC50 in assay [1] of 1.6 nM.

B9: hAb18-18 (antibody, human IgG1, kappa, L234A L235A, V domains shown)
VH: B5 VH
VL: B5 VL with V29L, Q54N
notes: humanized mAb-18: hAb18VH1 + hAb18VL2-12; human IgG1 (L234A, L235A) / kappa constant regions
In assay [1], B9 yielded an EC50 of 1.7 nM.

B10: hAb18-16 (antibody, human IgG1, kappa, L234A L235A, V domains shown)
VH: B5 VH
VL: B5 VL with S31T, Q54N
notes: humanized mAb-18: hAb18VH1 + hAb18VL2-10; human IgG1 (L234A, L235A) / kappa constant regions
Regarding B10, the EC50 in assay [1] was determined as 2.4 nM. The EC50 values of the last two molecules are within 1.5-fold of each other.

B11: hAb18-17 (antibody, human IgG1, kappa, L234A L235A, V domains shown)
VH: B5 VH
VL: B5 VL with S30T, Q54N
notes: humanized mAb-18: hAb18VH1 + hAb18VL2-11; human IgG1 (L234A, L235A) / kappa constant regions
Consider B11, for which the 50% effective concentration (EC50) in assay [1] is 1.8 nM.

B12: hAb18-9 (antibody, human IgG1, kappa, L234A L235A, V domains shown)
VH: B5 VH
VL: B5 VL with A25V
notes: humanized mAb-18: hAb18VH1 + hAb18VL2-3; human IgG1 (L234A, L235A) / kappa constant regions
In assay [1], B12 came in with an EC50 of 2.4 nM. This EC50 and that of the molecule before are within 1.5-fold of each other.

B13: hAb18-12 (antibody, human IgG1, kappa, L234A L235A, V domains shown)
VH: B5 VH
VL: B5 VL with V29L
notes: humanized mAb-18: hAb18VH1 + hAb18VL2-6; human IgG1 (L234A, L235A) / kappa constant regions
Take B13: the EC50 in assay [1] was determined as 1.9 nM.

B14: hAb18-19 (antibody, human IgG1, kappa, L234A L235A, V domains shown)
VH: B5 VH
VL: B5 VL with S28N, Q54N
notes: humanized mAb-18: hAb18VH1 + hAb18VL2-13; human IgG1 (L234A, L235A) / kappa constant regions
Take B14: a half-maximal effect in assay [1] (EC50) was put at 4.1 nM. Compared with the last molecule, the EC50 is about 2.2-fold higher.

B15: hAb18-10 (antibody, human IgG1, kappa, L234A L235A, V domains shown)
VH: B5 VH
VL: B5 VL with S31T
notes: humanized mAb-18: hAb18VH1 + hAb18VL2-4; human IgG1 (L234A, L235A) / kappa constant regions
B15 registered an EC50 in assay [1] of 2.7 nM.

B16: hAb18-11 (antibody, human IgG1, kappa, L234A L235A, V domains shown)
VH: B5 VH
VL: B5 VL with S30T
notes: humanized mAb-18: hAb18VH1 + hAb18VL2-5; human IgG1 (L234A, L235A) / kappa constant regions
In assay [1], B16 came in with an EC50 of 2.7 nM. In other words, the single-digit nanomolar range.

The values are drawn from patent publication US20240270874A1 (JIANGSU HENGRUI PHARMACEUTICALS, published 2024).
